B1: minF1; a variant is named by its letters at N, in order (parent)
chain: GAGACCGCAACTGAAAAGTTGTTNNNNAANNNNGGNTNNATTTCTGCACGTAGAAGCAAAAGGC

Variants of: B1
Test: fraction ligated after 30 min (ligated reads / total reads); higher = more ligase activity
Conditions: with F1*subA RNA substrate (template-directed ligation), 42 °C
Description: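 Chip-synthesised pool of minF1 ligase ribozyme variants (single and double substitutions, single to quadruple deletions, bulge and P2 designed variants) was transcribed with T7 and reacted as a pool with excess substrate F1*subA for 30 min at 42 C in 50 mM EPPS pH 8.5, 25 mM MgCl2. Ligated and unligated RNAs were separated by PAGE, barcoded by RT and deep sequenced; fraction ligated = ligated reads / total reads, relative activity = FL / FL of wild-type minF1 (0.76); sequencing FL correlated with PAGE (R2 = 0.98). Sequences are the DNA template of the ribozyme.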

Variant | fraction ligated
TCAATGGTTGA T23A | 0.00285
TCGATGTGTGA T23A | 0.00234
ACGAGATGTGA A28T A29G | 0.00619
TCAGGGATGTG T23A | 0.00389
TCGATGGAGTG G34T | 0.253
TCGATGATGTG T23A | 0.00459
TCAGGGAGTGA | 0.00359
ACGAGGATGTG A29T | 0.0152
TCAGGGATGTA | 0.00309
TCAGGGATGTG | 0.00637
ACGATGGAGTA | 0.00344
ACGATGGAGTG | 0.0132
TCAGATGGGTT G34A G35T T37G A40G | 0.000594
TCAGATGAGTA | 0.0022
TCAGATGAGTG | 0.00463
TCAATGTGTGA T23A | 0.00162
TCAGTGTGTGA | 0.00218
TCAGAGGATGA T23A | 0.00378
TCAGAGGAGTG | 0.00573
TCAGAGGAGTA | 0
TCGAGGTGTGA T23A A29T | 0.00169

Variant | fraction ligated
TCAGATATGTA T23A | 0.00212
ACAATGTGTGA | 0.00146
ACAGATGGGTG G34A | 0.0045
ACAGATGGGTG G34T | 0.00406
TCAGATGGGGT G34A G35T T37G A40T | 0.00121
TCAGTGGGTGA T23A | 0.0036
TCAGGGATGTG A29T | 0.00266
TCAGTGGAGTT G34T T37G A40G | 0.00151
TCGATGATTGA T23A | 0.00304
ACAGTGGTGTA | 0.000648
ACAGTGGTGTG | 0.00543
TCAGATATTGA | 0.00261
ACGAGGTGTGA A29T | 0.00316
ACAGATGGGTT G34A G35T T37G A40G | 0.000584
TCAGATGATGA T23A | 0.00196
ACAGTGGATGA | 0.00257
TCAGATGAGTT G34T T37G A40G | 0.00127
ACAGGGATGTG | 0.00506
ACAGGGATGTA | 0.00263
TCGAGATGTGA T23A A28T A29G | 0.00546
TCAGATGGGTA T23A | 0.00335

Variant | fraction ligated
TCAGGGAGTGA T23A | 0.0029
TCAGTGGAGTT T23A G34T T37G | 0.00183
ACAGGGATTGA A29T | 0.00506
TCAGAGGAGTT T23A G34T T37G | 0.000421
TCAGAGGTTGA | 0.00136
TCAGGATGTGA A28T A29G | 0.00322
ACGATGGAGTG G34T | 0.156
TCAGAGGGTGA | 0.00299
TCGATGGAGTA T23A | 0.00851
TCAGTGGTTGA | 0.00261
TCGAGGATTGA | 0.00327
TCAGATGTTGA T23A | 0.00154
TCAGGGATGTA T23A | 0.00201
TCAGTGAGTGA | 0.00311
TCAGTGGATGA T23A | 0.00222
ACAGTGGAGTA G34T | 0.0155
ACGATGATGTA | 0.00144
ACGATGATGTG | 0.00517
TCGAGGATGTA T23A | 0.0024
ACAGGGATTGA | 0.00266
ACGAGGATGTA A29T | 0.00647

Variant | fraction ligated
ACGATGGAGTA G34T | 0.0869
ACAGATGAGTA G34T | 0.00197
ACAGTGAGTGA | 0.00274
TCGATGGGTGA T23A | 0.000539
TCGAGATGTGA A29T | 0.00243
TCGAGATGTGA A29G | 0.00245
TCAGATGTGTG T23A | 0.00627
ACAGTGGAGTT G34T T37G A40G | 0.00141
TCAGATGGGTT G34A T37G | 0.00135
TCGAGGTGTGA | 0.00212
TCGATGTGTGA | 0.0025
TCAGATGGGTG T23A G34A | 0.00659
TCAGATGGGTG T23A G34T | 0.00324
TCAGAGTGTGA | 0.00219
ACAGTGGAGTG G34T | 0.0352
ACAGATGAGTT G34T T37G A40G | 0.00147
TCAGGGATGTA T23A A29T | 0.00445
TCGAGGATGTG T23A | 0.00538
ACAGATGGTGA | 0.00375
TCGATGGAGTG | 0.0131
TCGATGGAGTA | 0.00705
